# Measured values taken from FireProtDB (doi:10.1021/bi701365e).
# “And” between values parts separate entries of the source, which are not always exact repeats. Equal entries are not always repeated.
# B1: Flavodoxin wild type, O25776 (protein)
# chain: MGKIGIFFGTDSGNAEAIAEKISKAIGNAEVVDVAKASKEQFNSFTKVILVAPTAGAGDLQTDWEDFLGTLEASDFATKTIGLVGLGDQDTYSETFAEGIFHIYEKAKAGKVVGQTPTDGYHFEASKAVEGGKFVGLVIDEDNQDDLTDERISKWVEQVKGSFA
# Settings: Helicobacter pylori (strain ATCC 700392 / 26695), pH 9, Thermal, EPPS 50 mM, reversible: Yes (>80%), whole UniProt chain shown
protein,measurement,setting,value
B1,unfolding enthalpy (van 't Hoff),"DSC, transition: 3",29 kcal/mol and 50 kcal/mol
same,unfolding enthalpy (van 't Hoff),"Fluorescence, transition: 4",44 kcal/mol
